Results as given in paper PMC2756588.

Assays:
Test in all cases: SPOT array
Fus1, P11710 = biological target: T1, Fus1, P11710; settings: median of control spots 1200
T1 sequence (P11710 432-512, looked up): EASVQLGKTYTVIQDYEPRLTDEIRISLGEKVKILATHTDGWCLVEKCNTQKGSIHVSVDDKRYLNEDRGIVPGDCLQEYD

Hof1, Q05080 = biological target: T2, Hof1, Q05080; settings: median of control spots 4086
T2 sequence (Q05080 590-669, looked up): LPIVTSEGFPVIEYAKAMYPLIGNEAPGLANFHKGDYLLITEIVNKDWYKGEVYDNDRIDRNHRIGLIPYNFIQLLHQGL

Myo3, P36006 = settings: median of control spots 468
Pex13, P80667 = biological target: T3, Pex13, P80667; settings: median of control spots 1341
T3 sequence (P80667 295-386, looked up): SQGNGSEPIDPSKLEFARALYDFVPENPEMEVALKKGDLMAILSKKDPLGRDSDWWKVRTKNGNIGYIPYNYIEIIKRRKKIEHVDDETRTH

Nbp2, Q12163 = biological target: T4, Nbp2, Q12163; settings: median of control spots 357
T4 sequence (Q12163 103-180, looked up): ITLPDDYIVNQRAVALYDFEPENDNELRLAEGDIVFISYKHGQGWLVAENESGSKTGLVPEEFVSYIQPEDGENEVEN

Abp1, P15891 = biological target: T5, Abp1, P15891; settings: median of control spots 935
T5 sequence (P15891 535-592, looked up): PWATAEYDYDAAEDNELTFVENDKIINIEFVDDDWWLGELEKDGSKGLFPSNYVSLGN

Pin3, Q06449 = biological target: T6, Pin3, Q06449; settings: median of control spots 2171
T6 sequence (Q06449 53-122, looked up): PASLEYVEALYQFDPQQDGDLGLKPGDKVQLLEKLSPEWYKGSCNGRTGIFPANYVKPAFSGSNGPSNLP

Rvs167, P39743 = settings: median of control spots 2707
Chain of Rvs167, P39743 (P39743 419-482): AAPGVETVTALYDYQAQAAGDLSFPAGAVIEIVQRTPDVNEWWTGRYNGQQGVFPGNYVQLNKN

Sla1-3, P32790 = biological target: T7, Sla1-3, P32790; settings: median of control spots 5475
T7 sequence (P32790 344-424, looked up): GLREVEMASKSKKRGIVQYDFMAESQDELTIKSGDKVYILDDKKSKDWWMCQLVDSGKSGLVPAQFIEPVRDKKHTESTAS

GST = settings: median of control spots 978
Cdc25, P04821 = biological target: T8, Cdc25, P04821; settings: median of control spots 969
T8 sequence (P04821 50-136, looked up): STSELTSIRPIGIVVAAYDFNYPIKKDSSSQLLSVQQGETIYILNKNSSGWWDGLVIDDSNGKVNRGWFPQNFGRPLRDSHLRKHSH

Bem1-1, P29366 = settings: median of control spots 4282
Chain of Bem1-1, P29366 (P29366 55-141): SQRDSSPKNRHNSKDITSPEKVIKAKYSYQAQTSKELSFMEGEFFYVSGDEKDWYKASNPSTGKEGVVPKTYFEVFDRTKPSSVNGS

Bbc1, P47068 = biological target: T9, Bbc1, P47068; settings: median of control spots 796
T9 sequence (P47068 1-78, looked up): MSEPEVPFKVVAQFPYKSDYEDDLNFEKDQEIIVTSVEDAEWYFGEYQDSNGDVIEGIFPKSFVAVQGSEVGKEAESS

Boi1, P38041 = biological target: T10, Boi1, P38041; settings: median of control spots 1162
T10 sequence (P38041 1-86, looked up): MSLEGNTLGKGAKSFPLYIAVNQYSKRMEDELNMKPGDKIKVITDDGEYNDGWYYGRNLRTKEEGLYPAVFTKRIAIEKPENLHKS

Cyk3, Q07533 = biological target: T11, Cyk3, Q07533; settings: median of control spots 1451
T11 sequence (Q07533 1-83, looked up): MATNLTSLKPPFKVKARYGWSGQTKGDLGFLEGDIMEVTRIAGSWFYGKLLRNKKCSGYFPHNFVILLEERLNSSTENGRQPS

Hse1, P38753 = biological target: T12, Hse1, P38753; settings: median of control spots 1727
T12 sequence (P38753 208-285, looked up): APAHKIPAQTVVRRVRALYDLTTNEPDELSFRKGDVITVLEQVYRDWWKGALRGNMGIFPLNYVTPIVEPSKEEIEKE

Lsb1, P53281 = biological target: T13, Lsb1, P53281; settings: median of control spots 388
T13 sequence (P53281 45-122, looked up): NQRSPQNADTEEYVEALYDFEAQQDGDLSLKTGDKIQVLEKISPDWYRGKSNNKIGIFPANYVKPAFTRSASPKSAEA

Lsb4, P32793 = biological target: T14, Lsb4, P32793; settings: median of control spots 397
T14 sequence (P32793 402-468, looked up): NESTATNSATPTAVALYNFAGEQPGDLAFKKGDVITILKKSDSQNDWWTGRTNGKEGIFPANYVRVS

Sla1-2, P32790 = biological target: T15, Sla1-2, P32790; settings: median of control spots 712
T15 sequence (P32790 60-140, looked up): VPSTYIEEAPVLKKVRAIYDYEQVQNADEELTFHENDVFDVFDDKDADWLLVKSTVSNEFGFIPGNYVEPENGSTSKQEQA

Bzz1-2, P38822 = biological target: T16, Bzz1-2, P38822; settings: median of control spots 4538
T16 sequence (P38822 568-633, looked up): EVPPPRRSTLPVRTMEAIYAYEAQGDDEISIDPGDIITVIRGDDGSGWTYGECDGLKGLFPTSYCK

Bzz1-1, P38822 = biological target: T17, Bzz1-1, P38822; settings: median of control spots 4446
T17 sequence (P38822 478-572, looked up): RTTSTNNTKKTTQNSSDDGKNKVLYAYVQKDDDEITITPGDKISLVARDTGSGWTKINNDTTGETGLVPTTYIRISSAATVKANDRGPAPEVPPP

Lsb3, P43603 = biological target: T18, Lsb3, P43603; settings: median of control spots 406
T18 sequence (P43603 385-451, looked up): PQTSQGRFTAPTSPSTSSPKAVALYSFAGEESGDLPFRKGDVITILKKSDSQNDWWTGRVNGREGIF

Boi2, P39969 = biological target: T19, Boi2, P39969; settings: median of control spots 1161
T19 sequence (P39969 32-116, looked up): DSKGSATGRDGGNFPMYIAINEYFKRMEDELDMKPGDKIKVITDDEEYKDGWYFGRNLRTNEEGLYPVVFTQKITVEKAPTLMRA

Bud14, P27637 = biological target: T20, Bud14, P27637; settings: median of control spots 956
T20 sequence (P27637 247-328, looked up): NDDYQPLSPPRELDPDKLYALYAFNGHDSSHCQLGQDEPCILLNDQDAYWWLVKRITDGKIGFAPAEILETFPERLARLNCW

Bem1-2, P29366 = settings: median of control spots 4347
Chain of Bem1-2, P29366 (P29366 139-227): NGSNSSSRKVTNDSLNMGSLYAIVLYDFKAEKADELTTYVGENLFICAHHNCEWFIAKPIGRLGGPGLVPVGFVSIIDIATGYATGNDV

Sho1, P40073 = settings: median of control spots 1148
Chain of Sho1, P40073 (P40073 287-367): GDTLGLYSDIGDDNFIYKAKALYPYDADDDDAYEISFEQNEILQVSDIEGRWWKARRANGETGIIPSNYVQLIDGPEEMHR

Myo5, Q04439 = biological target: T21, Myo5, Q04439; settings: median of control spots 471
T21 sequence (Q04439 1072-1160, looked up): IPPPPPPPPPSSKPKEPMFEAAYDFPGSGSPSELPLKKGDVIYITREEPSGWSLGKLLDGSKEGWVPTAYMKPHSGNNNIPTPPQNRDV

Binder | SPOT intensity (Fus1, P11710) | SPOT intensity (Hof1, Q05080) | SPOT intensity (Myo3, P36006) | SPOT intensity (Pex13, P80667) | SPOT intensity (Nbp2, Q12163) | SPOT intensity (Abp1, P15891) | SPOT intensity (Pin3, Q06449) | SPOT intensity (Rvs167, P39743) | SPOT intensity (Sla1-3, P32790) | SPOT intensity (GST) | SPOT intensity (Cdc25, P04821) | SPOT intensity (Bem1-1, P29366) | SPOT intensity (Bbc1, P47068) | SPOT intensity (Boi1, P38041) | SPOT intensity (Cyk3, Q07533) | SPOT intensity (Hse1, P38753) | SPOT intensity (Lsb1, P53281) | SPOT intensity (Lsb4, P32793) | SPOT intensity (Sla1-2, P32790) | SPOT intensity (Bzz1-2, P38822) | further results
TKHKAPPPPPPTAET | 0 | 1 | 0 | 0 | 0 | 0 | 0 | 0 | 0 | 0 | 0 | 3 | 0 | 0 | 0 | 0 | 0 | 0 | 1 | 190 | SPOT intensity (Bzz1-1, P38822): 762; SPOT intensity (Lsb3, P43603): 1; SPOT intensity (Boi2, P39969): 1; SPOT intensity (Bud14, P27637): 0; SPOT intensity (Bem1-2, P29366): 0; SPOT intensity (Sho1, P40073): 0; SPOT intensity (Myo5, Q04439): 1
QPWTDQFEKLEKEVS | 0 | 1 | 0 | 0 | 0 | 0 | 0 | 0 | 0 | 0 | 4 | 0 | 0 | 0 | 0 | 0 | 0 | 0 | 0 | 1 | SPOT intensity (Bzz1-1, P38822): 5; SPOT intensity (Lsb3, P43603): 0; SPOT intensity (Boi2, P39969): 0; SPOT intensity (Bud14, P27637): 2; SPOT intensity (Bem1-2, P29366): 0; SPOT intensity (Sho1, P40073): 0; SPOT intensity (Myo5, Q04439): 0
LYEAMPPTLPHRDWK | 0 | 3 | 0 | 59 | 0 | 0 | 19 | 151 | 0 | 0 | 0 | 0 | 0 | 0 | 0 | 2 | 0 | 1 | 1 | 2 | SPOT intensity (Bzz1-1, P38822): 0; SPOT intensity (Lsb3, P43603): 0; SPOT intensity (Boi2, P39969): 2; SPOT intensity (Bud14, P27637): 0; SPOT intensity (Bem1-2, P29366): 1; SPOT intensity (Sho1, P40073): 0; SPOT intensity (Myo5, Q04439): 1
